Experimental data from the Immune Epitope Database (IEDB).

Experiments:
[1] = target: HLA-A*03:01; experiment: IEDB peptide-MHC binding, purified MHC/competitive/fluorescence; filed as Kd, often an IC50 or EC50 that approximates it; ≥ and ≤ were set here for values at or beyond the usual limits of such assays
[2] = target: HLA-B*58:01; experiment: as above
[3] = target: HLA-A*11:01; experiment: IEDB peptide-MHC binding, purified MHC/competitive/fluorescence; ≥ and ≤ were set here for values at or beyond the usual limits of such assays
[4] = target: HLA-A*03:01; experiment: as above
[5] = target: HLA-A*24:02; experiment: as above
[6] = target: HLA-A*29:02; experiment: IEDB peptide-MHC binding, purified MHC/competitive/fluorescence; filed as Kd, often an IC50 or EC50 that approximates it; ≥ and ≤ were set here for values at or beyond the usual limits of such assays
[7] = target: HLA-A*02:01; experiment: IEDB peptide-MHC binding, purified MHC/competitive/fluorescence; ≥ and ≤ were set here for values at or beyond the usual limits of such assays
[8] = target: HLA-B*15:01; experiment: as above
[9] = target: HLA-A*02:01; experiment: IEDB peptide-MHC binding, purified MHC/direct/fluorescence; filed as Kd, often an IC50 or EC50 that approximates it; ≥ and ≤ were set here for values at or beyond the usual limits of such assays
[10] = target: HLA-A*69:01; experiment: as above
[11] = target: HLA-B*08:02; experiment: as above
[12] = target: HLA-A*11:01; experiment: as above
[13] = target: HLA-B*27:05; experiment: as above
[14] = target: HLA-A*01:01; experiment: as above
[15] = target: HLA-A*29:02; experiment: as above
[16] = target: HLA-B*08:01; experiment: as above; settings: source organism: West Nile virus
[17] = target: HLA-B*46:01; experiment: as above
[18] = target: HLA-B*07:02; experiment: as above; settings: source organism: West Nile virus
[19] = target: HLA-A*03:01; experiment: as above
[20] = target: HLA-B*44:02; experiment: as above
[21] = target: HLA-B*48:01; experiment: as above; settings: source organism: West Nile virus
[22] = target: HLA-B*18:01; experiment: as above
[23] = target: HLA-B*40:01; experiment: as above
[24] = target: HLA-B*15:01; experiment: as above
[25] = target: HLA-B*58:01; experiment: as above
[26] = target: HLA-B*57:01; experiment: as above
[27] = target: HLA-A*31:01; experiment: as above
[28] = target: HLA-A*02:01; experiment: IEDB peptide-MHC binding, purified MHC/competitive/fluorescence; filed as Kd, often an IC50 or EC50 that approximates it; ≥ and ≤ were set here for values at or beyond the usual limits of such assays
[29] = target: HLA-B*15:01; experiment: as above; settings: source organism: Shigella flexneri 5 str. 8401
[30] = target: HLA-A*02:03; experiment: IEDB peptide-MHC binding, purified MHC/direct/fluorescence; filed as Kd, often an IC50 or EC50 that approximates it; ≥ and ≤ were set here for values at or beyond the usual limits of such assays; settings: source organism: Zaire ebolavirus
[31] = target: HLA-A*02:19; experiment: as above; settings: source organism: Zaire ebolavirus
[32] = target: HLA-A*02:16; experiment: as above; settings: source organism: Zaire ebolavirus
[33] = target: HLA-A*02:11; experiment: as above; settings: source organism: Zaire ebolavirus
[34] = target: HLA-A*68:02; experiment: as above; settings: source organism: Zaire ebolavirus
[35] = target: HLA-A*02:12; experiment: as above; settings: source organism: Zaire ebolavirus
[36] = target: HLA-A*69:01; experiment: IEDB peptide-MHC binding, purified MHC/competitive/fluorescence; filed as Kd, often an IC50 or EC50 that approximates it; ≥ and ≤ were set here for values at or beyond the usual limits of such assays
[37] = target: HLA-B*46:01; experiment: as above
[38] = target: HLA-B*39:01; experiment: as above
[39] = target: HLA-B*18:01; experiment: as above
[40] = target: HLA-B*27:03; experiment: as above
[41] = target: HLA-A*26:01; experiment: as above
[42] = target: HLA-B*51:01; experiment: as above; settings: source organism: Pseudomonas aeruginosa PACS2
[43] = target: HLA-B*57:01; experiment: as above; settings: source organism: Pseudomonas aeruginosa PACS2
[44] = target: HLA-A*02:12; experiment: as above; settings: source organism: Pseudomonas aeruginosa PACS2
[45] = source organism: Yersinia pestis Antiqua
[46] = source organism: Sudan ebolavirus
[47] = source organism: Zaire ebolavirus
[48] = source organism: West Nile virus
[49] = source organism: Shigella flexneri 5 str. 8401
[50] = source organism: Vaccinia virus
[51] = source organism: Pseudomonas aeruginosa PACS2
[52] = source organism: Vaccinia virus WR
[53] = source organism: Yellow fever virus

## SAYERGLRY
[1]; [45]
  Kd: 0.0535 µM
[2]; [45]
  Kd: ≥ 20 µM

## RTYTILNRK
[3]; [46]
  IC50: 0.163 µM
[4]; [46]
  IC50: 1.05 µM
[5]; [46]
  IC50: 42.2 µM

## WMNHHAITY
[6]; source organism: Orientia tsutsugamushi str. Boryong
  Kd: ≤ 0.0001 µM

## LSAIALGVA
[7]; [47]
  IC50: 25.8 µM
[8]; [47]
  IC50: ≥ 140 µM

## GYYSTTIRY
[4]; [47]
  IC50: ≥ 300 µM
[8]; [47]
  IC50: 4.56 µM
[5]; [47]
  IC50: 0.831 µM

## KCRVKMEKL
[9]; [48]
  Kd: ≥ 20 µM
[10]; [48]
  Kd: ≥ 20 µM
[11]; source organism: West Nile virus strain PTRoxo
  Kd: ≥ 20 µM
[12]; [48]
  Kd: ≥ 20 µM
[13]; [48]
  Kd: ≥ 20 µM
[14]; [48]
  Kd: ≥ 20 µM
[15]; [48]
  Kd: ≥ 20 µM
[16]
  Kd: ≥ 20 µM
[17]; [48]
  Kd: ≥ 20 µM
[18]
  Kd: ≥ 20 µM
[19]; [48]
  Kd: ≥ 20 µM
[20]; [48]
  Kd: ≥ 20 µM
[21]
  Kd: ≥ 20 µM
[22]; [48]
  Kd: ≥ 20 µM
[23]; [48]
  Kd: ≥ 20 µM
[24]; [48]
  Kd: ≥ 20 µM
[25]; [48]
  Kd: ≥ 20 µM
[26]; [48]
  Kd: ≥ 20 µM
[27]; [48]
  Kd: ≥ 20 µM

## LMNFHQKKN
[7]; [47]
  IC50: ≥ 123 µM
[4]; [47]
  IC50: ≥ 334 µM
[8]; [47]
  IC50: ≥ 265 µM

## VVTNSTLEV
[7]; [46]
  IC50: 7.96 µM
[8]; [46]
  IC50: ≥ 114 µM

## GMIAGWHGY
[6]; source organism: Influenza B virus (B/Victoria/2/1987)
  Kd: 0.0016 µM

## HLTPAQLSM
[28]; [49]
  Kd: 0.301 µM
[29]
  Kd: 1.78 µM
[2]; [49]
  Kd: ≥ 5 µM

## KTNDFAPAW
[30]
  Kd: ≥ 20 µM
[31]
  Kd: ≥ 20 µM
[32]
  Kd: ≥ 20 µM
[33]
  Kd: ≥ 20 µM
[24]; source organism: Ebola virus - Gabon (1994-1997)
  Kd: ≥ 5 µM
[34]
  Kd: ≥ 20 µM
[35]
  Kd: ≥ 20 µM
[28]; [47]
  Kd: ≥ 20 µM
[36]; [47]
  Kd: ≥ 20 µM
[37]; [47]
  Kd: ≥ 20 µM
[38]; [47]
  Kd: ≥ 20 µM
[39]; [47]
  Kd: ≥ 20 µM
[2]; [47]
  Kd: 0.0013 µM
[40]; [47]
  Kd: ≥ 20 µM
[41]; [47]
  Kd: ≥ 20 µM

## HILRSQGPF
[7]; [47]
  IC50: ≥ 519 µM
[8]; [47]
  IC50: 12.8 µM
[5]; [47]
  IC50: 5.72 µM

## RMNSNQVCI
[7]; [50]
  IC50: 3.44 µM
[4]; [50]
  IC50: ≥ 118 µM
[8]; [50]
  IC50: 18.1 µM
[5]; [50]
  IC50: 0.0818 µM

## KLIDVSKCI
[28]; [51]
  Kd: 0.0086 µM
[36]; [51]
  Kd: ≥ 20 µM
[6]; [51]
  Kd: ≥ 20 µM
[37]; [51]
  Kd: ≥ 20 µM
[38]; [51]
  Kd: ≥ 20 µM
[1]; [51]
  Kd: ≥ 20 µM
[39]; [51]
  Kd: ≥ 20 µM
[42]
  Kd: ≥ 20 µM
[43]
  Kd: ≥ 20 µM
[40]; [51]
  Kd: ≥ 20 µM
[44]
  Kd: 0.0109 µM
[41]; [51]
  Kd: ≥ 20 µM

## MSNGEHVPF
[8]; [52]
  IC50: 48.7 µM
[5]; [52]
  IC50: 5.46 µM

## GSRAYRNAL
[9]; [53]
  Kd: ≥ 20 µM
[10]; [53]
  Kd: ≥ 20 µM
[11]; [53]
  Kd: ≥ 20 µM
[12]; [53]
  Kd: ≥ 20 µM
[13]; [53]
  Kd: ≥ 20 µM
[14]; [53]
  Kd: ≥ 20 µM
[15]; [53]
  Kd: ≥ 20 µM
[17]; [53]
  Kd: ≥ 20 µM
[19]; [53]
  Kd: ≥ 20 µM
[20]; [53]
  Kd: ≥ 20 µM
[22]; [53]
  Kd: ≥ 20 µM
[23]; [53]
  Kd: ≥ 20 µM
[24]; [53]
  Kd: ≥ 20 µM
[25]; [53]
  Kd: ≥ 20 µM
[26]; [53]
  Kd: ≥ 20 µM
[27]; [53]
  Kd: ≥ 20 µM

## ETKKNLTRK
[3]; [47]
  IC50: 14.1 µM
[4]; [47]
  IC50: 49.6 µM

## VGKTSQVPK
[3]; source organism: Variola virus
  IC50: 1.55 µM
[4]; source organism: Variola virus
  IC50: 13.5 µM
